We go through 21 sequences from the DeepSol protein solubility set.

This data set can be described thus: soluble on expression in E. coli; label from the status in PepcDB or PDB records.
Turning to “MEKSWYVVHTYSGYENKVKANLEKRVESMGMQDKIFRVVVPEEVEVEMKNGKEKLMKRKVFPGYVLVELIMTDDSWYVVRNTPGVTGFVGSSGSGSKPSPLLEEEVVTIMKHMGMDNEVVDFDFELHETVRVNEGPFADYTGAIEEIDVEKKKVSVLVDMFGRETPVELDFHQIEKL”, the “soluble on expression in E. coli” value is reported as “soluble”.

On to “MEKVKKIVLIGASGFVGSALLNEALNRGFEVTAVVRHPEKIKIENEHLKVKKADVSSLDEVCEVCKGADAVISAFNPGWNNPDIYDETIKVYLTIIDGVKKAGVNRFLMVGGAGSLFIAPGLRLMDSGEVPENILPGVKALGEFYLNFLMKEKEIDWVFFSPAADMRPGVRTGRYRLGKDDMIVDIVGNSHISVEDYAAAMIDELEHPKHHQERFTIGYLEHHHHHH”, for which the “soluble on expression in E. coli” value was “soluble”.

On to “MEKYEEVLVSIRQIIRAIDLHSKKLSKESGLTAPQLILMRAINELDNVTIKQLSNHTNMSQATATTILDRLERNQLVERRRSVEDKRKVHAVLTEKGEEALRQAPTPLQEHFINRFQKLEEWEQTLLLSSVQRISTMMNAEDIDVAPLLEIGSITKPE”, for which the “soluble on expression in E. coli” value is recorded as “not soluble”. The entry for “MELDVFAGQEKSELSMIEVARAILETRGRDKEMYFNDLVNEIQNYLEKSDADIRSSLPFFYSDLNTDGSFIPLGDNKWGLRSWYAIDEIDEEVITLEDIDENAPKRKNKKVNAFMDGDEDAIDYNDDDPEDENFTPSSAILEYDNDNEDDENAEVESYDSELNEIIPDDDLDDVELSEEDDDDDDDYEDETND” is “not soluble”; for “MELETEIIVDKVDVENPILITSFPGIGLVGTIATAHYIMELKLESIGIVDSRLLPPVASLYEGVILPPVRVYQSADLGFVLIHSDVPIIPQAAIDMSKKIVQFAAEINARRVYSFAGVATFEDKKRVFAAATSKELLEEVKDHAEIFKTGTISGIAGSIMNECVAAKMPGIVLLGETLGFNPDPRAAASLIEAVNKIMNWNVSVEKLLKEAEMIEAQMQKLAEQARMQEERKEEFPMYG” it is “soluble”; for “MELKEGDEILNVAGPLGNPAPMEKFGKILAIGAYVGIAEVYPIAKAWQEIGNDVTTLHVTFEPMVILKDYFEKAVSRHIVEPVKIDQEKSFQENTKNVTKALTAKVKELLDNENWDLVFMVGPPGDQKAVFEVVKKYGIPMKVDLHPIMLEHHHHHH” it is “not soluble”. The entry for “MELKKFELKTVELPILKPGTLRGKKEFRLLHISDLHMIPGQETKKAWVSALDSLSPDLVINTGDNLSDEKAVPDVLRALGPLMNRPGAFVFGTNDYWAPRPVNPFGYLFGKKREVSHIDLPWRAMRAAFIEHGWQDANQKRLEFQVGSVRLAISGVDDPHHDLDDYTEIAGAPNVDADLSIALLHAPEPRVLAQFEADGYQLSLSGHTHGGQLEHHHHHH” is “not soluble”; for “MELKLIPIEKPENLNVILGQAHFIKTVEDLHEALVTAVPGIRFGLAFSEASGKRLVRRSGTDEALVELAVKNLLNLACGHVFLIVLGEGFYPINVLHAVKACPEVVRIYAATANPLKVVVAEEGEQRAILGVMDGFTPLGVEDEAEVAWRKDLLRRLGYKL” it is “soluble”; for “MELMIGRVVKSHGIRGEVAIEVTTEEPEIRFAQGEVLNGRQGGKEHSLTIASVRPHQNRLLVKFKEIADRTAADSLRGTRFFAAPLDDDVDDGFYDHELEGLAVIHGEEKIGEVSGVIHGPAQSLLEVTLESGKEVLIPFVHDIVPEVDLDAGTCVITPPEGLLEL” it is “not soluble”. The entry for “MELNGKAPSRRQLNIQHWNTAEGARVLFVEARELPMFDLRVTFAAGSSQDGGTPGLAALTNAMLNEGVAGKDVTAIAEGFEGLGADFGNGSYRDMAVASLRSLSAKDKREPALKLFTEVAGKPTFPEDALKRIKNQMLAGFEYEKQNPGKIAGKALFGKLYGDHPYAHPSDGTAESITGISLAQLRAFHAKAYTGGNAVIALVGDLSRAEAEAIAAQVSAGLPKGPALAAPAQPALEHHHHHH” is “soluble”; for “MELRVAGFLDNSMVNGEGLRSVLFLSGCRRRCPGCQNTDMQDFKYGESVSAEEIFNRIKSNVPIIKGVTFSGGDPLEQAEGLINISKEIKKLGLNIWCYTGYTYEEILKEKDSNKLELLKYIDVLVDGEFKAELTENAPKYAGSSNQRIIRLKLEHHHHHH” it is “not soluble”. On to “MELTTKLVGTCSALDRLYQSGSAKCLFPRNSRAGLEAVLLNTAGGVTGGDRLSFSAQVRAGTRLSVTTQACERAYRAQPGETGQVRNHLSVATGARMNWLPQETILYDGSSLDRRLSVEIEPGASLLMVEPLVFGRIEMGESLNDARFCDRIEITRRGRPIFLDATRLQGGIAAHLAKPFIANGAGAMALLVYLAENAEAVLPRLRQMLPECAGASLIGEDLLVMRVLAADSFLLRQSLLPALRLLNNNEIPRCWTILEHHHHHH”, for which the “soluble on expression in E. coli” value is “not soluble”. Next, “MEMILEEKDASDWIYRGEGGANLVLAYAGSSPLFVGKVIRIQKARRNDKAIKNANGVVSVLTSDEQHLWRENNELISSPNKEVLEQRYVKNVIIPLLGPKHVDAGVRVSVSKEFLECVDKKVTKQRPLWRVNAANVDTSHDSALILNDHSLFSQGISSGGDCISVEIKPKCGFLPTSRFIGKENMLKTSVSRFKMHQLLKLEYNEISAASAYDPLDLFSGSKESVLEAIKALYSTPQNNFRVFLNGSLILGGSGESTGRTSPEIGYAFEDALKGFIQSEDGHRTECFLQLVSDAVYGSGVLDRLLEIQKLDKLDIEGAIHSYYDLINQPCPICKEGKPLEAELSLHALPLDESLKIVKEYLIAATAKDCSIMISFQSRNAWDSEPSGDYVSLKPTNQTFDYKVHFIDLSLKPLKRMESYYKLDKKIISFYNRKQKAENTAEQIGNSKPSHS”: “soluble”; “MEMSSNNKPVAGAEIKVAGASPTDSDQEGRFILNFTASLPGDPLMINDIYKKGFKIVNYEKVANWNISSASELKIVLGRTEVINALRKKYYDIGESNSEKEYRKTLAELEELKKQNALSAVEYDQKVDSMSKSMMEWQKRLEIYALKFACINRDELDAMEKQAMELLDHGDVHGAIRLYEEMKLDSTMTLKIAVRQEAKEDMKLLLPSLVNNFQLLKQADDKVACDSVAHLIYEMAADIKLKLMSVEWFFQRNDPSEVLDQYSLIVKDTQSMQEIELVENSLQQSLKEVKLKGELKKKAQLVFERIEDRKKWISIKEKI”: “not soluble”. Next, “MENKMESIEQQVEVLLEQEPQLLPAAMAERLGVTEFDVVAALPQEMVAISPGEQAQTILESLVGFGPVTTIVHSFGSIFEVKAPFPKGKVARGYYNLMGREGELHGHLKLDNVKNIALVSKPFMGRESHYFGFFSECGSNIFKVYLGRDEKRELIAEQVTAFRAMQAELNQLEHHHHHH”: “not soluble”. Next, “MENKVVEEKQVDKIPLMSPCKMGKFELCHRVVLAPLTRQRSYGYIPQPHAILHYSQRSTNGGLLIGEATVISETGIGYKDVPGIWTKEQVEAWKPIVDAVHAKGGIFFCQIWHVGRVSNKDFQPNGEDPISCTDRGLTPQIMSNGIDIAHFTRPRRLTTDEIPQIVNEFRVAARNAIEAGFDGVEIHGAHGYLIDQFMKDQVNDRSDKYGGSLENRCRFALEIVEAVANEIGSDRVGIRISPFAHYNEAGDTNPTALGLYMVESLNKYDLAYCHVVEPRMKTAWEKIECTESLVPMRKAYKGTFIVAGGYDREDGNRALIEDRADLVAYGRLFISNPDLPKRFELNAPLNKYNRDTFYTSDPIVGYTDYPFLETMT”: “soluble”; “MENLKNYFDVVIIGAGPAGLFAAYELSKYDNLKTVVIDRGKDVLERHCAAEKLKKCIKCNPCQIMYGVGGAGGLSDGTLNLRPDIGGNLAEITNNENYAWQLIFEVDKIFLEHGGPKKLFKGSFEKIKGLQRRSAQNGVRFIPIIQRHIGSDHTKQLINNIKTTLQNRGVEFLLNTEVFKFEKNKVFVNISGKKEEINAKYIIVAPGRGNAEWFLKISEKIGLISNHGPIDVGVRVEVPSIIMESITEINHDPKFHIYTDTYDDFVRTFCTNPYGFVVEENYGDIIGVNGHSMVDKKSENTNFSFLTRIELTEPVENTTSYGKSIAKLTTTLGGGKPILQRLGDLKRGRRSTWDRLKKSSFDPTLKQVTPGDIAMALPHRIVTNIIEGLEKLDKVIPGVSNDHTLLYAPEIKYYAMKTKVNDDLETSILNIFAAGDGAGLSRDITNSCATGMLAARGILKKEGITDIFKDENTNWQEKVESMKLEHHHHHH”: “soluble”; “MENMLLWLIFFTPGWTLIDGSEMEWDFMWHLRKVPRIVSERTFHLTSPAFEADAKMMVNTVCGIECQKELPTPSLSELEDYLSYETVFENGTRTLTRVKVQDLVLEPTQNITTKGVSVRRKRQVYGTDSRFSILDKRFLTNFPFSTAVKLSTGCSGILISPQHVLTAAHCVHDGKDYVKGSKKLRVGLLKMRNKSGGKKRRGSKRSRREASGGDQREGTREHLQERAKGGRRRKKSGRGQRIAEGRPSFQWTRVKNTHIPKGWARGGMGDATLDYDYALLELKRAHKKKYMELGISPTIKKMPGGMIHFSGFDNDRADQLVYRFCSVSDESNDLLYQYCDAESGSTGSGVYLRLKDPDKKNWKRKIIAVYSGHQWVDVHGVQKDYNVAVRITPLKYAQICLWIHGNDANCAYG”: “not soluble”.

For “MENNLAEFERRAEKNLLIMCKEKEKLQKKAHELKRRLLLSQRKRELADVLDAQIEMLSPFEAVATRFKEQYRTFATALDTTRHELPVRSIHLEGDGQQLLDALQHELVTTQRLLGELDVGDSEENVQVLDLLSELKDVTAKKDLELRRSFAQVLELSAEASKEAALANQEVWEETQGMAPPSRWYFNQDSACRESGGAPKNTPLSEDDNPGASSAPAQATFISPSEDFSSSSQAEVPPSLSRSGRDLS”, the “soluble on expression in E. coli” value is recorded as “soluble”.

As for “MEQDNSPQKIQFTVPLLEPHLDPEAAEQIRRRRPTPATLVLTSDQSSPEIDEDRIPNPHLKSTLAMSPRQRKKMTRITPTMKELQMMVEHHLGQQQQGEEPEGAAESTGTQESRPPGIPDTEVESRLGTSGTAKKTAECIPKTHERGSKEPSTKEPSTHIPPLDSKGANSV”, the “soluble on expression in E. coli” value was “soluble”. For “MEQLLFRHNRPGRCVTFAEYRAEGGFAALEKALAGMSPNDVQQVVIDSGLRGRGGAGFPTGKKWSFVPRDIPGPRYLICNCDEMEPGTYKDRVLLEANPYSLVEGMTLAAYAIGVAHAFIFIRRGYEEAAENCRRAIAEAKAAGLLGENILGTGFSLELDVHQSAGRYICGEETALMNALEGKRANPRSKPPFPAVKGLWGRPTVVNNVETLANIPAIVANGAAWFKGLARIPEAAGMKLFCVSGHVNNTACFELPLGMTLGEIIDGPCGGMLPGREFKACIPGGASTPFFTKEHWHVPMDFDTVAKAGSRLGTGGIVVFDRDTCMVAATLNLIVFYARESCGWCTPCREGLPFVQDVLARIEAGEGREEHIGILREHIQYLNYSFCPLAPGAMGPVEGLLRLFEGEIREHIVLGRCPFGGKLEHHHHHH”, the “soluble on expression in E. coli” value is “not soluble”.
